Laboratory results taken from patent US20240368668A1, “SUBSTRATES AND BIOMARKERS OF ADAMTS7” (The Broad Institute, Inc., priority 2021, published 2024).

molecular target: T1, mouse ADAMTS7 (Mus musculus, UniProt Q68SA9); assay: TMT10 TAILS N-terminomics, HUVEC experiment (process replicates, trypsin/AspN digest); type: cell-based, human; conditions: HUVEC TAILS HC; log fold change of N-terminal peptide, Ad-mADAMTS7 WT over Luc
T1 construct: Full-length mouse Adamts7 1-1857 (Uniprot Q68SA9, WT or E373Q catalytic mutant); expressed in transfected cells; host or cells: Human Coronary Artery Smooth Muscle Cells (HCA-SMC, Lonza), adenovirus 50 MOI
T1 sequence (Q68SA9 221-1657): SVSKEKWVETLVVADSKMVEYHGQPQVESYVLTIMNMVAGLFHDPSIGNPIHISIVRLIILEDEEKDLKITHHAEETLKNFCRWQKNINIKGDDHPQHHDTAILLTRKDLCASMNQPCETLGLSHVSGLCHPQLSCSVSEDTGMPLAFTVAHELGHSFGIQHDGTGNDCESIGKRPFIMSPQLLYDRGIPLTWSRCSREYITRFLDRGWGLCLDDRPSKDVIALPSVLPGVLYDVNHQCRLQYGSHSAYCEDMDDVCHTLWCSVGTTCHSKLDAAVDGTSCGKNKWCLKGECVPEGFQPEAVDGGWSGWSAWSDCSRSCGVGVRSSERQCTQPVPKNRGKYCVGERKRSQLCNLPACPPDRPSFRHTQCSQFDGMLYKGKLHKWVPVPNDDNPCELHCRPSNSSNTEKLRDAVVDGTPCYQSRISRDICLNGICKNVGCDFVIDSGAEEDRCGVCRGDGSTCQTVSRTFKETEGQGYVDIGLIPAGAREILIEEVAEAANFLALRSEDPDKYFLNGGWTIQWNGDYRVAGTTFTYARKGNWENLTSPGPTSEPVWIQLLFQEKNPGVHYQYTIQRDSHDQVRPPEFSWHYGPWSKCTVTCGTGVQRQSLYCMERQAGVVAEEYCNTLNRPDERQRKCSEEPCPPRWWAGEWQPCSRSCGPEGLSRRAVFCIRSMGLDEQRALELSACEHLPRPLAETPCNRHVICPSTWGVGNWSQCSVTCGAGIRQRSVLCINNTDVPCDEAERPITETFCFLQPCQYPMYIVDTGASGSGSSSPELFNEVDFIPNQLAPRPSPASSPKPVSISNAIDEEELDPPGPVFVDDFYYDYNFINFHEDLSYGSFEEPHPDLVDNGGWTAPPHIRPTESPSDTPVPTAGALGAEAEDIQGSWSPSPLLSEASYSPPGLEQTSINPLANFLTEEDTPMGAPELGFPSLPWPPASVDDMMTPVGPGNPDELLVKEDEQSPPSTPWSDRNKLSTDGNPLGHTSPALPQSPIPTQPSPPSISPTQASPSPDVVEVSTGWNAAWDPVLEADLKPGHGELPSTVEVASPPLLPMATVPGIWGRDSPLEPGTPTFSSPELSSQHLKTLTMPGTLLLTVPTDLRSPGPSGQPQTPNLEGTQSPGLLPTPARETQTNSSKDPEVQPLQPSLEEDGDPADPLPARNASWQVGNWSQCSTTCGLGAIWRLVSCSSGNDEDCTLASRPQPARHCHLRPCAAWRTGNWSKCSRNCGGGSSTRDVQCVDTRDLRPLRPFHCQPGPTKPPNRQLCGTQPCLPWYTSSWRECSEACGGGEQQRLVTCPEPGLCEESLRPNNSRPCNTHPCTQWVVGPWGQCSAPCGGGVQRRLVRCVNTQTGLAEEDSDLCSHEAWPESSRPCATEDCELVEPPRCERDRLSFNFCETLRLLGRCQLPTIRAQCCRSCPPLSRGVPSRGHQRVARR
From the text: ADAMTS7 Expression, Cell Culture and Preparation of the Secreted Proteins—Full-length mouse Adamts7 1-1857 (Uniprot Q68SA9, WT or E373Q catalytic mutant) with a carboxyl terminal 3xFLAG tag was used to generate custom adenoviruses as previously described. Adeno-CMV-Luciferase (Ad-Luc) from Vector Biolabs was used as a negative control. Human Coronary Artery Smooth Muscle Cells (HCA-SMC) were obtained from Lonza and expanded in Lonza SmGM-2 media in 15 cm tissue culture plates. Twenty-four hours before media collection, near confluent plates were transduced with 50 MOI adenovirus and switched to Lonza Basal SM media with volumes of 20 ml per 15 cm plate. Expression of the Flag tagged ADAMTS7 was confirmed from the media using western blot and detected using the anti-Flag M2-HRP antibody (Sigma, A8592). Collected media was processed by adding protease inhibitors (1 mM EDTA and 1 mM PMSF) and clarified by 500 g×5 min spin at 4 C to pellet cell debris. Cell media supernatants were then passed through a 0.22 um filter and kept chilled. Processed media was then concentrated 50-100× using 3 kDa Centricon Plus-70 filter unit, spun at 3,500 g×60 min at 4 C. Approximately 10% of the processed, concentrated media was set aside for total secretome proteolytic analysis. The remaining 90% of the processed, concentrated media was buffer exchanged into 50 mM HEPES pH 8.0, 150 mM NaCl (2×50 ml) using the 3 kDa Centricon Plus-70 filter unit and concentrated to >2 mg/ml to serve as input for the TAILS experiment. Secretome and TAILS input samples were stored at −80° C.
For the first experiment, referred to as SMC1, 120 ml of media from 6×15 cm dishes was pooled from each condition (Luc, WT, EQ) and processed to produce three separate inputs for the TAILS experiment. Luc, WT and EQ inputs from the SMC1 experiment were each divided into triplicate 400 ug samples to generate technical replicate TAILS data. For the second experiment, referred to as SMC2, media was processed separately in triplicate for each condition (Luc1, Luc2, Luc3, WT1, WT2, WT3, EQ1, EQ2, EQ3) using 60 ml of media from 3×15 cm dishes for each process replicate. Inputs from the SMC2 experiment used process replicates of 300 ug each to generate TAILS data. The third experiment used input from cultured Human umbilical vein endothelial cells (HUVEC) from Lifeline Cell Technology grown in VascuLife Media and transduced in Lifeline Basal EC (+bFGF2 10 ng/ml). The HUVEC experiment used the same strategy as the SMC2 experiment, with 40 ml of media from 2×15 cm dishes for each process replicate and used 200 ug each to generate TAILS data. Inputs for process replicate experiments were restricted to the lowest concentration from the 9 parallel samples for SMC2 or HUVEC.
TMT10 isotopic labeling and negative selection of non-labeled peptides-Sample preparation was performed based on the TAILS protocol from the Overall lab with some modifications. From a single experiment, nine parallel protein samples in 50 mM HEPES pH 8.0, 150 mM NaCl were separately denatured with guanidinium chloride (Sigma, G4505) to reach a final concentration of 2.5M guanidinium chloride and 250 mM HEPES and incubated at 65° C. for 15 min. Reduction was achieved through addition of tris(2-carboxylethyl) phosphine (TCEP) at a final concentration of […] and incubated at 65° C. for 45 min. Alkylation reaction was performed with addition of iodoacetamide (IAA, Sigma, A3221) to a final concentration of 10 mM IAA for 15 min at room temperature in the dark. Following denaturation, reduction and alkylation steps, ten percent of each of the nine parallel protein samples was removed and combined to serve as a pooled reference. Isobaric tags were added to free amine groups using the TMT10plex Isobaric Mass Tagging Kit (ThermoFisher, 90113) with TMT channels randomly assigned to the nine samples and TMT 131 assigned to the pooled reference. […]

Substance	logFC.mWT.over.Luc
FLNA_1285 (LTQTGGPHVKAR; listed as Homo sapiens)	3.29
FN1_40 (QSPVAVSQSKPGCYDNGKHYQINQQWER; listed as Homo sapiens)	2.45
FN1_886 (NQESTPVVIQQETTGTPR; listed as Homo sapiens)	1.61
FN1_1143 (LTPGVEYVYTIQVLR; listed as Homo sapiens)	3.43
FN1_1656 (SSSPVTGYR; listed as Homo sapiens)	1.56
IGFBP7_101 (AAGGPGVSGVCVCKSR; listed as Homo sapiens)	1.86

The next lines start with the values.

logFC.mWT.over.Luc	Substance
3.77	AEBP1_37 (FLEGFLSELEPEPR; listed as Homo sapiens)
2.92	EFEMP1_124 (AVAGPEMQTGR; listed as Homo sapiens)
3.57	FBN1_29 (LEAGNVKETR; listed as Homo sapiens)
2.98	FN1_36 (MVQPQSPVAVSQSKPGCYDNGKHYQINQQWER; listed as Homo sapiens)
1.72	HSPG2_2331 (ANLAYPAGSTQPIR; listed as Homo sapiens)
2.82	LOXL2_37 (FQQPAPEYHQPQAPANVAKIQLR; listed as Homo sapiens)
3.38	LOX_124 (WFQAGYSTSR; listed as Homo sapiens)
3.14	LTBP1_393 (LTATNFR; listed as Homo sapiens)
